Columns and labels:
[1] = target: biotin-labeled surface proteins from human monocytes; assay: SPR; Biacore 3000; biotin-labeled surface proteins from THP-1 cells (3.2 kRU) or human monocytes (2.3 kRU) captured on a SA chip; 25 nM S100A8, S100A9 or S100A8/S100A9 injected 3 min at 20 uL/min in HBS-P with 1 mM Ca and 20 uM Zn; fit to a 1:1 model
[2] = target: biotin-labeled surface proteins from THP-1 cells; assay: as above

B1: S100A9 (recombinant human S100A9, produced at Active Biotech AB) (natural protein)
chain: MTCKMSQLERNIETIINTFHQYSVKLGHPDTLNQGEFKELVRKDLQNFLKKENKNEKVIEHIMEDLDTNADKQLSFEEFIMLMARLTWASHEKMHEGDEGPGHHHKPGLGEGTP
- Kd [1]: 2.3 nM
- Kd [2]: 3.3 nM

Reference: publication PMC4678419
